Drawing on paper PMC5557760, this text covers binding for 1 sequence.

This data set concerns the target T1, PtpA (Mycobacterium tuberculosis) (UniProt P9WIA1).
T1 sequence: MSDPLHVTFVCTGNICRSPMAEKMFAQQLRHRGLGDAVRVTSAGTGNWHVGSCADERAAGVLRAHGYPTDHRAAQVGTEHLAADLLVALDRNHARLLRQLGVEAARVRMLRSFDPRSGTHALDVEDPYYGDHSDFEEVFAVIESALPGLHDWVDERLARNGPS
In words: competition. As to conditions: EMSA: 10 ug PtpA, 10 nM biotin-labeled DNA, Beyotime GS009 binding buffer (salt, pH not stated), 20 min, room temperature, 15% native PAGE.

For the sequence “CCTTAAAACAAAAGACATGAAAAGATAATAAGAAAAAAGTGCCGCAACTATTATAGAAAAACACTTGGCAGCCTGCTTCAGCCCAAGCTGAGGCCACCTCTAGCCTCTGCTAAAGCCCCCCACTCCCAATGGTCCCCGCCAACCGGATAA (double strand) [GADD45A promoter -250 to -100, unlabeled negative competitor]”, the binding result was “no binding”.
